Data from patent US20030144483A1 (Bristol-Myers Squibb, published 2003).

B1: humanized NEWM VH/REI Vκ mAb (antibody, human IgG1, V domains shown)
VH: QVQLQESGPGLVRPSQTLSLTCTVSGFIFSDNYMYWVRQPPGRGLEWIGTISDGGSYTYYPDSVKGRVTMLRDTSKNQFSLRLSSVTAADTAVYYCARGYYRYEGAMDYWGQGSLVTVSS
VL: DIQLTQSPSSLSASVGDRVTITCKSSQSVLYSSNQKNYLAWYQQKPGKAPKLLIYWASTRESGVPSRFSGSGSGTDFTFTISSLQPEDIATYYCHQYLSSWTFGQGTKVEIK
notes: Human IgG1 and human kappa constant regions; also called NEWM/REI based antibody; NMVK/HuVK

Tests used:
[1] = target: human FcγRI on cells (monocytes, IFN-γ-treated neutrophils, U937 cells) (human) (UniProt P12314); test: flow cytometry, FITC antibody on monocytes, average of duplicates
[2] = target: T1, soluble fusion protein consisting of the extracellular domain of human FcγRI and human IgM heavy chain … (human, UniProt P12314 16-292; P01871 106-453); test: ELISA on captured sFcγRI-µ, in excess human IgG1 lambda
T1 construct: From supernatant of transiently transfected COS cells, captured on plates with goat anti-human IgM; also called FcRI/IgM fusion protein; FcγRI/IgM heavy chain fusion protein
T1 sequence (P12314 other isoform, or with tags, fused parts or gaps): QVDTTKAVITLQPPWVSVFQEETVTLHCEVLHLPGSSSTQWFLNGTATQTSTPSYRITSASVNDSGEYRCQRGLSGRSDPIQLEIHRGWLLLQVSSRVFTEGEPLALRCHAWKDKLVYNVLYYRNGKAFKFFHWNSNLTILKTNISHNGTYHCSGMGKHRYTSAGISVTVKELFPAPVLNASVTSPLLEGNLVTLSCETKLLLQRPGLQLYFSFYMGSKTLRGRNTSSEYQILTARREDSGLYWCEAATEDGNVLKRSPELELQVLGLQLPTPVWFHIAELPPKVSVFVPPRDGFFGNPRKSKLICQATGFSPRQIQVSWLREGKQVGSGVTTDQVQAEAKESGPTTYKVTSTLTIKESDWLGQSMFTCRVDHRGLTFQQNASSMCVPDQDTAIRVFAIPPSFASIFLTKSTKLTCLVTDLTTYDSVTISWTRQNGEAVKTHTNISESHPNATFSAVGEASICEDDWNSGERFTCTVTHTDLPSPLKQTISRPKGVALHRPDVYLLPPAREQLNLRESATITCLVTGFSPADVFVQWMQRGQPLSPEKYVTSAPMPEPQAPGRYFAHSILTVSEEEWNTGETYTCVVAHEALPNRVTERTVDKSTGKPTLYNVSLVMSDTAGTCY
Experimental: The binding of the antibodies to antigen was measured by ELISA. Wells of a microtitre plate (Immunlon 1, Dynatech, Chantilly, Va.) were coated with 200 ng goat anti-human IgM antibodies (Sera-lab, Crawley Down, U.K.) in 100 μl 50 mM carbonate buffer pH 9.6 at 37° C. for at least one hour. Wells were emptied and washed once with PBST and blocked with 1% BSA in PBS at room temperature for thirty minutes. The wells were emptied and washed with PBST and Cos supernatant containing FcRI/IgM fusion protein was added and incubated for one hour at room temperature. Wells were then emptied and washed three times with PBST and test antibodies diluted in 1% BSA/PBS were added and incubated for one hour at room temperature. In addition, each well contained 2 μg human IgGI, lambda antibody (Sigma, Poole, U.K.) The wells were then emptied, washed three times with PBST and 40 ng peroxidase goat anti-human kappa constant region antibodies (Sera-Lab, Crawley Down, U.K.) in 100 μl 1% BSA/PBS added to each well. After incubation for one hour at room temperature, the wells were emptied, washed three time with PBST and 10 μl HPD substrate buffer was added.
The wells of a microtiter plate were coated with goat anti-human IgM antibodies (Sera-Lab, Crawley Down, U.K.) in 50 mM bicarbonate buffer, pH 9.6. […]

Sequence of human FcγRI on cells (monocytes, IFN-γ-treated neutrophils, U937 cells) (human) (P12314 16-374): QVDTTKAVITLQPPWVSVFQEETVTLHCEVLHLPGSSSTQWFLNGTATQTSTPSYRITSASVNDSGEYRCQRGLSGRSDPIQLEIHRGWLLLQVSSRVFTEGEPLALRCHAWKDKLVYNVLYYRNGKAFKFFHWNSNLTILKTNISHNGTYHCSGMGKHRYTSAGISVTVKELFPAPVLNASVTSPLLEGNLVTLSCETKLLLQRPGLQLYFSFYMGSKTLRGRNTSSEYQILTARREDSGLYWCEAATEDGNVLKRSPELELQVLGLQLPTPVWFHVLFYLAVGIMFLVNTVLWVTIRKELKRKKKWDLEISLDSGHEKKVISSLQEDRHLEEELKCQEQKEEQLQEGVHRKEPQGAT

| Molecule | antibody sites per cell (monocytes) (antibody sites per cell) [1] | fold lower affinity than the chimeric mAb [2] |
| --- | --- | --- |
| humanized mAb 22, KOL VH/REI Vκ mAb, designated H22 (antibody) | 10500 | – |
| B1 | – | ~5 fold |
